Source: IntAct's records for PubMed 32761762

B1: NAD-dependent protein deacetylase sirtuin-1 (Homo sapiens), Q96EB6 (parent)
chain: MADEAALALQPGGSPSAAGADREAASSPAGEPLRKRPRRDGPGLERSPGEPGGAAPEREVPAAARGCPGAAAAALWREAEAEAAAAGGEQEAQATAAAGEGDNGPGLQGPSREPPLADNLYDEDDDDEGEEEEEAAAAAIGYRDNLLFGDEIITNGFHSCESDEEDRASHASSSDWTPRPRIGPYTFVQQHLMIGTDPRTILKDLLPETIPPPELDDMTLWQIVINILSEPPKRKKRKDINTIEDAVKLLQECKKIIVLTGAGVSVSCGIPDFRSRDGIYARLAVDFPDLPDPQAMFDIEYFRKDPRPFFKFAKEIYPGQFQPSLCHKFIALSDKEGKLLRNYTQNIDTLEQVAGIQRIIQCHGSFATASCLICKYKVDCEAVRGDIFNQVVPRCPRCPADEPLAIMKPEIVFFGENLPEQFHRAMKYDKDEVDLLIVIGSSLKVRPVALIPSSIPHEVPQILINREPLPHLHFDVELLGDCDVIINELCHRLGGEYAKLCCNPVKLSEITEKPPRTQKELAYLSELPPTPLHVSEDSSSPERTSPPDSSVIVTLLDQAAKSNDDLDVSESKGCMEEKPQEVQTSRNVESIAEQMENPDLKNVGSSTGEKNERTSVAGTVRKCWPNRVAKEQISRRLDGNQYLFLPPNRYIFHGAEVYSDSEDDVLSSSSCGSNSDSGTCQSPSLEEPMEDESEIEEFYNGLEDEPDVPERAGGAGFGTDGDDQEAINEAISVKQEVTDMNYPSNKS
partner: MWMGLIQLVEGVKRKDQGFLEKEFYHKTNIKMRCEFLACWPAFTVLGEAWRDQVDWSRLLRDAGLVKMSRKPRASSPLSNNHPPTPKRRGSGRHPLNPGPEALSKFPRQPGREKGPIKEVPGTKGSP

Variants of: B1
Details: with csag2_human CSAG2, Q9Y5P2

| effect of a mutation on the interaction | Variant |
| --- | --- |
| decreasing interaction | H363Y |
